Experimental data taken from patent publication US12551525B2, “Collagen peptide-based medicament compositions and devices and methods of production and use thereof” (SUSTAIN HOLDINGS, LLC, priority 2017, dated 2026).

Tested on: corneal epithelium in wounded mouse eyes
Test: In vivo healing of mouse corneal epithelium (corneal wound model, fluorescein staining)
Set-up: species or system mouse (C57BL/6)
Conditions: positive control, 100 ng/ml; 16 hours post-wounding; compared to Cmpd 3 and Cmpd 10
Procedure: The FIG. 1s a series of photomicrographs depicting the healing of a wound in the cornea of mouse eye, at time 0 and 16 hours post-wounding, upon treatment with certain compositions of the present invention. Wounds were introduced into the corneas of mice, and the mice treated immediately after wounding with vehicle (PBS), with 100 ng/ml of epidermal growth factor (EGF), or with 25 nM (about 3 mg/kg) of a (Pro-Pro-Gly)7 CMP of the invention (SEQ ID NO:1) (“Cmpd 3”), or of a (Hyp-Pro-Gly)7-SubP CMP-TC of the invention (SEQ ID NO:390) (“Cmpd 10”).
To examine the possible therapeutic effects of CMPs and CMP-TC conjugates of the invention, studies were designed to test certain CMPs and CMP-TC conjugates in an in vivo setting—the healing of the corneal epithelium in wounded mouse eyes. […] Wound size at various time points over 48 hours was examined by fluorescein staining (see Carlson et al., id.), and documented via fluorescent photomicrography, and quantified using Image J software (see Rush, J. S. et al., Investig. Ophthalmol. Visual Sci. 57 (14): 5864-5871 (2016); Rush, J. S. et al., Investig. Ophthalmol. Visual Sci. 55 (8): 4691-4699 (2014)). […]

B1: epidermal growth factor (protein, UniProt P01133 23-1207, looked up)
Pro-epidermal growth factor: PQHWSCPEGTLAGNGNSTCVGPAPFLIFSHGNSIFRIDTEGTNYEQLVVDAGVSVIMDFHYNEKRIYWVDLERQLLQRVFLNGSRQERVCNIEKNVSGMAINWINEEVIWSNQQEGIITVTDMKGNNSHILLSALKYPANVAVDPVERFIFWSSEVAGSLYRADLDGVGVKALLETSEKITAVSLDVLDKRLFWIQYNREGSNSLICSCDYDGGSVHISKHPTQHNLFAMSLFGDRIFYSTWKMKTIWIANKHTGKDMVRINLHSSFVPLGELKVVHPLAQPKAEDDTWEPEQKLCKLRKGNCSSTVCGQDLQSHLCMCAEGYALSRDRKYCEDVNECAFWNHGCTLGCKNTPGSYYCTCPVGFVLLPDGKRCHQLVSCPRNVSECSHDCVLTSEGPLCFCPEGSVLERDGKTCSGCSSPDNGGCSQLCVPLSPVSWECDCFPGYDLQLDEKSCAASGPQPFLLFANSQDIRHMHFDGTDYGTLLSQQMGMVYALDHDPVENKIYFAHTALKWIERANMDGSQRERLIEEGVDVPEGLAVDWIGRRFYWTDRGKSLIGRSDLNGKRSKIITKENISQPRGIAVHPMAKRLFWTDTGINPRIESSSLQGLGRLVIASSDLIWPSGITIDFLTDKLYWCDAKQSVIEMANLDGSKRRRLTQNDVGHPFAVAVFEDYVWFSDWAMPSVMRVNKRTGKDRVRLQGSMLKPSSLVVVHPLAKPGADPCLYQNGGCEHICKKRLGTAWCSCREGFMKASDGKTCLALDGHQLLAGGEVDLKNQVTPLDILSKTRVSEDNITESQHMLVAEIMVSDQDDCAPVGCSMYARCISEGEDATCQCLKGFAGDGKLCSDIDECEMGVPVCPPASSKCINTEGGYVCRCSEGYQGDGIHCLDIDECQLGEHSCGENASCTNTEGGYTCMCAGRLSEPGLICPDSTPPPHLREDDHHYSVRNSDSECPLSHDGYCLHDGVCMYIEALDKYACNCVVGYIGERCQYRDLKWWELRHAGHGQQQKVIVVAVCVVVLVMLLLLSLWGAHYYRTQKLLSKNPKNPYEESSRDVRSRRPADTEDGMSSCPQPWFVVIKEHQDLKNGGQPVAGEDGQAADGSMQPTSWRQEPQLCGMGTEQGCWIPVSSDKGSCPQVMERSFHMPSYGTQTLEGGVEKPHSLLSANPLWQQRALDPPHQMELTQ
modifications: Pro-epidermal growth factor
notes: positive control growth factor
  wound healing in mouse cornea and corneal stroma (reduction in diameter and intensity of fluorescein fluorescence): a lower level of healing
